{"source": "paper PMC2246632", "binders": {"B1": {"name": "native CDEIII probe (dsDNA)", "DNA 1": "AAATATTAGTGTATTTGATTTCCGAAAGTTAAA", "DNA 2": "TTTAACTTTCGGAAATCAAATACACTAATATTT"}, "B2": {"name": "native CDEIII competitor (dsDNA)", "DNA 1": "B1 DNA 1", "DNA 2": "B1 DNA 2"}, "B3": {"name": "site 1 mutant (dsDNA)", "DNA 1": "B1 DNA 1 with C22G, C23A, G24T", "DNA 2": "B1 DNA 2 with C10A, G11T, G12C"}, "B4": {"name": "site 2 mutant (dsDNA)", "DNA 1": "B1 DNA 1 with T10A, G11A, T12C, A13T", "DNA 2": "B1 DNA 2 with T21A, A22G, C23T, A24T"}}, "key": {"[1]": {"target": "Cep3Δ (lacks zinc cluster) (Saccharomyces cerevisiae, UniProt P40969 48-608)", "sequence (P40969 48-608, stated change not applied)": "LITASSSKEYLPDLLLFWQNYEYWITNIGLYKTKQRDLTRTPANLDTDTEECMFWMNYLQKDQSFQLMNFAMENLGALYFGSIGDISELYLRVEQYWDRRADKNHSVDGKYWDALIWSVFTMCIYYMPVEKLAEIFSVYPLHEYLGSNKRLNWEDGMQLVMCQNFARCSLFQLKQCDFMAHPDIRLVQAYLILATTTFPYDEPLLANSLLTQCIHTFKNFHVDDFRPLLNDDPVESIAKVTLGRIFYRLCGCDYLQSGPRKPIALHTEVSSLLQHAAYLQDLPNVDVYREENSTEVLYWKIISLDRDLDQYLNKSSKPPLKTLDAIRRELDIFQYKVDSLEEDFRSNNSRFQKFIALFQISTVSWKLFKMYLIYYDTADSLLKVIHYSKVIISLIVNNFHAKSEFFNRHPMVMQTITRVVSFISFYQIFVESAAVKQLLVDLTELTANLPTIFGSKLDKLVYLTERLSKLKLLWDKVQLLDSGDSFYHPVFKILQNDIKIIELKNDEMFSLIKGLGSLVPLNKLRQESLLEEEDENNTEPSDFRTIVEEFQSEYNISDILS", "experiment": "EMSA"}, "[2]": {"target": "T1, Cep3 (Cep3 1-608, full-length) (Saccharomyces cerevisiae, UniProt P40969 1-608)", "T1 sequence (P40969 whole entry)": "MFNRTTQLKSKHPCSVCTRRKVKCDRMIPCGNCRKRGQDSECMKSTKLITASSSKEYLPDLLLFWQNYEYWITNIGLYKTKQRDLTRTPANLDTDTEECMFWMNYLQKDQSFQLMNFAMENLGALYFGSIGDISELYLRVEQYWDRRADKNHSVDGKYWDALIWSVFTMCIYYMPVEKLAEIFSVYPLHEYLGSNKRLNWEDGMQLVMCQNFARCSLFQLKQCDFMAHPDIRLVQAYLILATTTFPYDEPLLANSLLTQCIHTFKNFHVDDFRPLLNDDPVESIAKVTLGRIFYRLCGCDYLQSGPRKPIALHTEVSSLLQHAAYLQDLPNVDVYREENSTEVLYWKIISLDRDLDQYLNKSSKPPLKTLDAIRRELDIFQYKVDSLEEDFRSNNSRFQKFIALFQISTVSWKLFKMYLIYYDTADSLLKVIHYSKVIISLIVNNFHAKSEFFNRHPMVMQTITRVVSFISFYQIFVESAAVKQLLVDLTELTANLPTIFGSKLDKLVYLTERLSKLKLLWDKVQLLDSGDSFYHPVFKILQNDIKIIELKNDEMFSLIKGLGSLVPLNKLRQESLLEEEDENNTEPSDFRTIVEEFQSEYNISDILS", "experiment": "EMSA"}, "[3]": {"target": "T1, Cep3 (Cep3 1-608, full-length)", "experiment": "competition"}}, "note": "Positions count from the first letter of the chain named."}
{"binder": "B1", "values": [{"measurement": "binding result", "setting": "[1]", "result": "no binding"}, {"measurement": "binding result", "setting": "[2]", "result": "binds"}]}
{"binder": "B2", "values": [{"measurement": "binding result", "setting": "[3]", "result": "binds"}]}
{"binder": "B3", "values": [{"measurement": "binding result", "setting": "[3]", "result": "no binding"}]}
{"binder": "B4", "values": [{"measurement": "binding result", "setting": "[3]", "result": "binds"}]}
